Data: PMC9709071
Values joined by “and” are separate entries in the source; they are usually repeats but may differ in a detail not shown here. Equal entries are not always repeated.

Assays:
[1] = target: Recombinant DR3-Fc (UniProt Q93038); test: ELISA; DR3-Fc immobilised non-specifically on Maxisorp plates (overnight, 4 °C), casein block; TL1A added in 3-fold dilutions, overnight 4 °C; bound TL1A detected with polyclonal rabbit anti-human TL1A-biotin and streptavidin-HRP; concentrations normalised to TL1A trimers; triplicate
Recombinant DR3-Fc, sequence (Q93038 25-199): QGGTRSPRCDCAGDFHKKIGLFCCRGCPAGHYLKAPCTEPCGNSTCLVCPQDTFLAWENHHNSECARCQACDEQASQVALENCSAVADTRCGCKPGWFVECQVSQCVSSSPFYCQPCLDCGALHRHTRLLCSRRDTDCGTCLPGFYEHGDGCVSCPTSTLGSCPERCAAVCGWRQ

[2] = target: DcR3 (TNFRSF6B) (UniProt O95407); test: ELISA; TL1A variants on DcR3; who was immobilised is not told for DcR3; triplicate
DcR3 (TNFRSF6B), sequence (O95407 30-300): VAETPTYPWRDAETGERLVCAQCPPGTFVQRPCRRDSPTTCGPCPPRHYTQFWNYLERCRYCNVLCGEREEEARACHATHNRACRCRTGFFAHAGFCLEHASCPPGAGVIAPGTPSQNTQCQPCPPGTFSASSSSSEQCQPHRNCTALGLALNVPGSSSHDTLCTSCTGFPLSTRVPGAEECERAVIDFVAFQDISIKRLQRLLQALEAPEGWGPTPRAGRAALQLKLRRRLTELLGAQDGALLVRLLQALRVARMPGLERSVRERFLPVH

[3] = target: mouse DR3 (mouse)
[4] = target: Recombinant DR3-Fc (UniProt Q93038); test: ELISA; receptor (DR3-Fc; DcR3) immobilised on Maxisorp plates, TL1A variant titrated in 3-fold dilutions, overnight 4 °C, detected with anti-human TL1A-biotin and streptavidin-HRP; concentrations normalised to TL1A trimer; triplicate
[5] = target: Fc-scTL1A (TL1W14) (human) (UniProt O95150); test: SEC-MALS; Waters BEH SEC column, 25 °C, PBS pH 7.4, 5 µg of sample
[6] = target: HSA-scTL1A (TL1W15) (human) (UniProt O95150); test: ELISA; reversed format: TL1A molecules immobilised, DR3 titrated
HSA-scTL1A (TL1W15) (human), sequence (O95150 other isoform, or with tags, fused parts or gaps): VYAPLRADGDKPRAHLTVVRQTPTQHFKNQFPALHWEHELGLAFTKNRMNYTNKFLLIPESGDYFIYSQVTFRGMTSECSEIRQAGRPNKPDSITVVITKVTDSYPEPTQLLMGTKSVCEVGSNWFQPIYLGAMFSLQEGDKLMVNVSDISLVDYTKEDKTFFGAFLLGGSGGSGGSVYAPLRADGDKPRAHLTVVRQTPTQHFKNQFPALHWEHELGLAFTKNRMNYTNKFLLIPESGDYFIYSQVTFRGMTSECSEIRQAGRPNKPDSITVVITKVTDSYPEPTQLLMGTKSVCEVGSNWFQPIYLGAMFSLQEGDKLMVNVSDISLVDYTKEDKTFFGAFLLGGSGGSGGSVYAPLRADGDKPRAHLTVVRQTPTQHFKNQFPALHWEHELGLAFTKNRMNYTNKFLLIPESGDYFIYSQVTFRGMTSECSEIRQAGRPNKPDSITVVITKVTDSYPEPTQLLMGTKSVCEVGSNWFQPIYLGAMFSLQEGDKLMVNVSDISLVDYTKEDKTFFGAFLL

[7] = target: Fc-scTL1A (TL1W14) (human) (UniProt O95150); test: as above
Target sequence in this assay (O95150 other isoform, or with tags, fused parts or gaps): as above

[8] = target: DcR3 (UniProt O95407); test: ELISA; receptor (DR3-Fc; DcR3) immobilised on Maxisorp plates, TL1A variant titrated in 3-fold dilutions, overnight 4 °C, detected with anti-human TL1A-biotin and streptavidin-HRP; concentrations normalised to TL1A trimer; triplicate
DcR3, sequence (O95407 30-300): as the sequence (O95407 30-300) above

Substance | EC50 [1] | EC50 [2] | IFNg in C57BL/6 mice 6 h after Fc-scTL1A (i.p.) with anti-CD3 antibody (i.v.) [3] | EC50 [4] | stoichiometry N [5] | EC50 [6] | EC50 [7] | EC50 [8]
Recombinant DR3-Fc (from UniProt Q93038 25-199) (Fc fusion) | – | – | – | – | – | 3.8 nM | 1.5 nM | –
TL1W38 (L123K) (from UniProt O95150 1-251) (ligand) | 29.4 nM | 24.7 nM | – | 29.5 nM | – | – | – | –
TL1W45 (E190F) (from UniProt O95150 1-251) (ligand) | 31.4 nM | 21.2 nM | – | – | – | – | – | –
TL1W80 (K111A) (from UniProt O95150 1-251) (ligand) | 30 nM | 89.8 nM | – | – | – | – | – | 16.3 nM
TL1W109 (S187L) (from UniProt O95150 1-251) (ligand) | 17.7 nM | 85.5 nM | – | – | – | – | – | 15.5 nM
TL1W122 (N207F) (from UniProt O95150 1-251) (ligand) | 30.2 nM | 58.5 nM | – | – | – | – | – | 10.6 nM

Further substances by falling EC50 [1], results first:

EC50 [1] | EC50 [2] | IFNg in C57BL/6 mice 6 h after Fc-scTL1A (i.p.) with anti-CD3 antibody (i.v.) [3] | EC50 [4] | stoichiometry N [5] | EC50 [6] | EC50 [7] | EC50 [8] | Substance
17.1 nM | 176 nM | – | – | – | – | – | 32 nM | TL1W95 (Q167A) (from UniProt O95150 1-251) (ligand)
16.6 nM | 69.2 nM | – | – | – | – | – | 12.6 nM | TL1W92 (M158Y) (from UniProt O95150 1-251) (ligand)
9.7 nM | 6.5 nM | 750 pg/mL | 26.2 nM | 2 and 4 | – | – | – | Fc-scTL1A (TL1W14) (from UniProt O95150 84-251; O95150 84-251; O95150 84-251) (Fc fusion)
